Data on twelve sequences can be found in the DeepSol protein solubility set.

The nature of the series: soluble on expression in E. coli; label from the status in PepcDB or PDB records.
For the sequence “MGSDKIHHHHHHMANKNLYGGNPERGWCMVLPGFFSEDIRVDNHAANGRSSKSFISEGRWAKVISQVKKGDYVFIQFGHNDEKADSARHTDPGTTFDDNLRRFVNETRVKGGIPVLFNSIVRRNFVQPEDASIATDARRAPGEQELPKEVNVLYDTHGAYLDSPRNVAKEMGVAFIDMNKITHDLVQGLGPAESKKLFMFVEPEKVPAFPKGREDNTHLNVYGARTIAGLTVDAIAKEIPELAKYVRHYDYVVAQDGTGDFFTVQEAINAVPDFRKNVRTTILVRKGTYKEKIIIPESKINISLIGEDGVVLTNDDFANKKNVFGENMGTSGSSSCYIYAPDFYAENITFENSAGPVGQAVACFVSADRAFFKNCRFLGYQDTLYTYGKHSRQYYEDCYIEGTVDFIFGWSVAVFNRCHIHSKRDGYVTAPSTDQGKKYGYVFYDCRLTADPDVAKVYLSRPWRPYAQAVFIRCELGKHILPEGWHNWGKKEAEKTVFYAEYDSHGEGANPKARAAFSRQLKNLKGYEMETVLAGEDGWNPLKNDSVK”, the “soluble on expression in E. coli” value was “not soluble”.

For “MSLNAIHRILMTTDGSITAIIEAVTQKKVEVETLEQKIIRADRELAELLEIDEGDEVNYRVVYLRANGEIYAKAISFTPLKRLENSFREDLMRADIPIGKIMRKHNIEARREIRWSRVEEADLALAKELGIADRRVISRNYNIIHRGKVLINITEFFPMERFRIEGYHHHHH”, the “soluble on expression in E. coli” value is “soluble”.

As to “ERVVINISGLRFETQLKTLAQFPETLLGDPKKRMRYFDPLRNEYFFDRNRPSFDAILYYYQSGGRLRRPVNVPLDIFSEEIRFYELGEEAMEMFREDEG”, the “soluble on expression in E. coli” value is recorded as “soluble”.

“MGSDKIHHHHHHMQKLMHCSIMDLRLLVAVADAGNMSKGGAVCFLAPSTASLRIKHLEAIVGTRLFRREARGVSLTRAGQIMVDHSRRCLTEIEQMQASLTPFSEDVHAQLVLYANSSAIASFLPGDLQGFLQSHPKARITLEEHLSRDVLVAVVEGRADIGILTKDEPHPDLVYFPYHEDEIVLLLAETQPWTKTEPVAFLDCLSFPFVSQQNGSAIHSFLLAKASEQGRRVDVRIQVAGFAAVASMVRSGVGVAIVPRSALAAINVEGLRVVALSDAWARRTLSLCVRRDVLGSRNYVTALVDVLRQSGDQAGVADSA”: the “soluble on expression in E. coli” value is “not soluble”.

With “MSCGSNRGNEMKDKYDVLVIGAGPAGSIAAKTAAEKGLDVLLIEKRQEIGDPVRCAEGVNKECLKKHVEIDKRWICADLKGSCIFSPDGTKIEMAEEISGGEVGYVLERKVFDRALAEHAATAGAEVRVKTRATGLIIEDDFVKGARLMHLGKEYEVRASIVIGADGVESKVGRWAGIDTALKPVDVETCAQYLIAGADINQEYCEFYIGNEMAPGGYVWVFPKGGGKANVGIGILGSKMGKFKPRPVDYLNDFVQKKFPDARIVEMVFGGVPVSGSIEKTSVNGLMLVGDAARQSDPITGGGILNAMDAGKLAGEAAYEAISAGDVSVVKLEEVYEKKWRDTVGHDIDMSLIVKNCFINLTDDDLDSLAHSLKDVKFERMSLLDLLQALFKANKKLLWDLRVLFKDAAKEVIKNKTLEHHHHHH”, the “soluble on expression in E. coli” value was “soluble”.

Take “MKYDDTINIAFFGLDRRQKTDISRSDSIMILTMDPTHKKLKLSSIMRDTYVNVDGHGMTKITHAYAYGGPQLAIKTINENFNLNIKDYVTVDFYGLEKIIDKLNGVEVDVQPDEVNYLNSYIDEVSKYEKVTPNHVSSAGKQLLDGRQAVAYSRIRYTAGGDFQRTERQRTVLMAVFNKMKAQGKSNMLSMMDELLPYAETDLGSLDIAKYGAKFLSSNIDSIDQERFPVDGYCSGITVDNVWYLKTDLGVTSDQMKKYIFEDVKPTPKASLVNIPAKLEHHHHHH”: the “soluble on expression in E. coli” value is “soluble”.

As for “MWKIELSDWTDDEFKHIVDFFTNQNILQPLETRRVRYLEMLLFNRSFMIFFPNIIDNHPELFMPCKARPNPPDVPIAVRVFTFEDRKMVMRSELFKAINMKYPNRKPIEYNDVNGFLYAMELKDVFKNFGDLWHDIDFLNTPINRTNQKAVPIITSTGDFCIPGFRAFSEIFYLMSLIMRVFQKVKINSMHVLDDYIKILVSQLEPFLKSQCFITTDAFQKIEQEMCNYWKKFENIPVKDIRDVKRFTLNDLKKELKYLGITEAFPDVLVYADLAFPKLLESVSQNKLETIDMFEAVAECTYCCLLDKYLELVQVWFPQFGSHKMFCSILPPDPVDIFLGVSSSHKDLRRYIKGEDKENMKVKDTSNPQVMKNQRENPKSISKPEGNNSDTPTESGNSSSSKVESSMANCTDCSGVRKEMKTVQNVLKDVQTQLTTMKHKSEKFEKNMTGSVERSKKAEQRLQEEKLDHVKIQVEAKKKLELKLEEVETWKKQVSALWNCKSDHEALNTKLSKCVEKGKKLKEINEKVSNSRDQLSTKVFELKLQLNRELETAETLKNERKDSAKLRNEVNQLKDQLEREREIAYGLQEEASKLRVGTGKDVKRQILESENAQLRQEKQRREMEKSSLLETKMILSRQNEEQHKLIQSLMDQNHTEEGPSNHEDENGSYRKVLWKHQKIKDLYRKGEQQREAEEMVNKLISLNQHPEVQHISFLELESFKKQISDYLHTVEKNIQKIKRNDDFTNLEPLPEPPKMSDKFMRLYWNEMNKQPSTSDLPSAELDDTDQL”, the “soluble on expression in E. coli” value is “not soluble”.

Consider “MQSSLSFSCGVKSTMAKSPVEVNLIPIEATPETFAEYGQVIEASRDGAGYGPNDAQLDLSKGIPRLYILRLKETPLGFFKITHHAKVTQCLGSIGGDIWYMGVAKPSLIEDDDDGRRVDTVKAKSGHLYIPPEVEEIRVFRFSGPKFVKLHRGTWHAGPLFSGSSIMDFYNLELSNTNVVDHTSHDFTKNNGVSFRFDT”, for which the “soluble on expression in E. coli” value was “not soluble”.

Consider “MSLSGCASPASASGASALSVWDLFQGGDGMLMDDMIEAVSKGAGGAEGFEIDRTILDWGPSYYTKLAMSAAGGRASDVAAMHLSRLAGYAPGGLVDAFDLDLLAEYGVTEKDFTPAVWARTRHEGTVYAIPLDVHPFIVFYDKKAAERAGLLDAAGELAPMGSPEALLEAGKALAEATGESGILFGHVTDTAQNWRLFAGLYAQTGAAFDLPDGGPPEIDVDAAVRVVTLMTRLFDGKTNPSNLDYNGALAAFSSGRGGMAMLGEWELPTLKKSGMELGAAPFPQVFEKPAVYTDSHSFVLPHQDSPDPARRREAHRYVAQILAQSLTWASAGHIPAYQPVLAEPEYAALDPQSSYADAAEVAVLDPPNWFAGAGSNFQNRMCQPLQSALLGDTTPEKAVRQMVREADTLLRQPNPVAEGHHHHHH”, for which the “soluble on expression in E. coli” value is reported as “soluble”.

Turning to “GAMGSEEKLREVSSQDPVTGLYNRSHFLDLMDAAVQQAVTARKPSTLAYIHLNGYPSLQADHGLSGIDLLLGQLAGLMREQFGEEADLARFGDSIFAALFKGKTPEQAQAALQRLLKKVENHLFELNGRSAQATLSIGVAGLDEKTAKAQDVMNRAHRCADDAARKGGSQIKQYNPAEELAAAAQRGDVIAILQQALETNSFRLLFQPVISLRGDSHENYEVLLRLLNPQGQEVPPAEFLHAAKEAGLAEKIDRWVILNSIKLLAEHRAKGHQTKLFVHLSSASLQDPGLLPWLGVALKAARLPPESLVFQISEADATSYLKQAKQLTQGLATLHCQAAISQFGCSLNPFNALKHLTVQFIKIDGSFVQDLNQVENQEILKGLIAELHEQQKLSIVPFVESASVLATLWQAGATYIQGYYLQGPSQAMDYDFSSGDE”, the “soluble on expression in E. coli” value was “soluble”.

Consider “MQTEVKETPRYAIVASVQLPEVSDAEFEASLTELSELAKTLGFQVVQTFVQKRSSFDRTAYMGVGKLDEISMYVKRGIRADELEDEPQELDASSVAIDALLVDHEISPSQARNLELAVGCEVMDRTMVILEIFHRNARSRAARAQVEIARLGYMAPRLREAAKLAGPQGRQRSGMGGRGAGESHTELDRRKVRDRIAELQREIVAMELERKTQRARRLERQGLGLGGVSLVGYTNAGKSTLMRALTGSEVLVANKLFATLDTTVRVLHPESVPRVLVSDTVGFIKNLPHGLVASFKSTLEEALDASLLLHAIDASDPGFQRQLEVTDEVLREIGADDVPRIRVFNKIDHVGDEAEQAAWTAELRQRYPGCVVMSALRPEDVASLRAAIVAFFQQDLVEDELLLPWSAQQLRGEIYSHCQVLEERAEEEGCWFRVRGEPEKLRSLREQLNPGSQGREKEYWEALEHHHHHH”, for which the “soluble on expression in E. coli” value was “not soluble”.

“GSDLTYAYLVGLFEGDGYFSITKKGKYLTYELGIELSIKDVQLIYKIKKILGIGIVSFRKRNEIEMVALRIRDKNHLKSFILPIFEKYPMFSNKQYDYLRFRNALLSGIISLEDLPDYTRSDEPLNSIESIINTSYFSAWLVGFIEAEGCFSVYKLNKDDDYLIASFDIAQRDGDILISAIRKYLSFTTKVYLDKTNCSKLKVTSVRSVENIIKFLQNAPVKLLGNKKLQYLLWLKQLRKISRYSEKIKIPSNY”: the “soluble on expression in E. coli” value is listed as “soluble”.
